From paper PMC6987200 (Nature Communications, 2020)
Values joined by “and” are separate entries in the source; they are usually repeats but may differ in a detail not shown here. Identical values can stand only once.

Columns and labels:
[1] = target: T1, aquaporin channel (AqpZ) fused to GFP, P60844; test: native MS; AqpZ-GFP after extraction with OGD batches and IMAC; MS buffer 200 mM NH4OAc, pH 6.8, with detergent; modified Q Exactive, HCD 200 V; settings: remark: other sources report otherwise
T1 chain: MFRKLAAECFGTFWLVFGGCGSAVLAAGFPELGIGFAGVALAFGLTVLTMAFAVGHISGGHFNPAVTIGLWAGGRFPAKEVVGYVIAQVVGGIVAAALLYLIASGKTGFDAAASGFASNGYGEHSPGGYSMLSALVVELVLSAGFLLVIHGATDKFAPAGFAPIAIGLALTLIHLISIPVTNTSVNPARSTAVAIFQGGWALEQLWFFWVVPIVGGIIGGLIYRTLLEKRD

[2] = target: the molecule itself; test: native MS; OmpF after detergent exchange from n-octyl-β-D-glucopyranoside to OGDs 1-3 on Superdex 200; MS buffer 200 mM NH4OAc, pH 6.8; HCD 200 V

| Binder | stoichiometry N [1] | stoichiometry N [2] |
| --- | --- | --- |
| aquaporin channel (AqpZ) fused to GFP, P60844 1-231 (natural protein) MFRKLAAECFGTFWLVFGGCGSAVLAAGFPELGIGFAGVALAFGLTVLTMAFAVGHISGGHFNPAVTIGLWAGGRFPAKEVVGYVIAQVVGGIVAAALLYLIASGKTGFDAAASGFASNGYGEHSPGGYSMLSALVVELVLSAGFLLVIHGATDKFAPAGFAPIAIGLALTLIHLISIPVTNTSVNPARSTAVAIFQGGWALEQLWFFWVVPIVGGIIGGLIYRTLLEKRD | 4 and 2 |  |
| OmpF (natural protein, UniProt P02931 23-362, looked up, OmpF, a bacterial outer membrane protein; also called trimeric OmpF; source: detergent exchanged on Superdex 200) AEIYNKDGNKVDLYGKAVGLHYFSKGNGENSYGGNGDMTYARLGFKGETQINSDLTGYGQWEYNFQGNNSEGADAQTGNKTRLAFAGLKYADVGSFDYGRNYGVVYDALGYTDMLPEFGGDTAYSDDFFVGRVGGVATYRNSNFFGLVDGLNFAVQYLGKNERDTARRSNGDGVGGSISYEYEGFGIVGAYGAADRTNLQEAQPLGNGKKAEQWATGLKYDANNIYLAANYGETRNATPITNKFTNTSGFANKTQDVLLVAQYQFDFGLRPSIAYTKSKAKDVEGIGDVDLVNYFEVGATYYFNKNMSTYVDYIINQIDSDNKLGVGSDDTVAVGIVYQF |  | 3 |
